Measurements from the supplement of paper PMC3353916.
± gives the standard deviation of the averaged measurements.

Test system: Sindbis virus TE/5'2J-GFP
Assay: percent infected (GFP+ in RFP+ ISG-expressing cells); higher = more infection (less antiviral activity)
Method: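 Confirmatory testing of 87 ISGs. Triplicate wells of BHK/HA-Zeo (control) or BHK/NZAP-Zeo (ZAP) cells were transduced with lentiviruses co-expressing a human ISG plus TagRFP, then infected 48 h later with SINV TE/5'2J-GFP (moi 5). The % GFP+ cells among RFP+ cells was measured by flow cytometry at 8 h post infection. Fluc lentivirus served as control. Three independent experiments.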

[1] = experiment: confirmatory screen 1, BHK/HA-Zeo (control)
[2] = experiment: confirmatory screen 1, BHK/NZAP-Zeo (ZAP)
[3] = experiment: confirmatory screen 2, BHK/HA-Zeo (control)
[4] = experiment: confirmatory screen 2, BHK/NZAP-Zeo (ZAP)
[5] = experiment: confirmatory screen 3, BHK/HA-Zeo (control)
[6] = experiment: confirmatory screen 3, BHK/NZAP-Zeo (ZAP)
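Note: Interferon-defective BHK-21 derivatives, ZAP line overexpressing the rat ZAP N-terminal zinc finger domain fused to Zeocin resistance, GFP scored within live singlet TagRFP+ cells.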

Sequence	percent infected [1] [%]	percent infected [2] [%]	percent infected [3] [%]	percent infected [4] [%]	percent infected [5] [%]	percent infected [6] [%]
MKVSAAALAVILIATALCAPASASPYSSDTTPCCFAYIARPLPRAHIKEYFYTSGKCSNPAVVFVTRKNRQVCANPEKKWVREYINSLEMS [CCL5]	95.946 ± 0.068	69.5 ± 4.5	94.757 ± 0.09	93.5 ± 1.5	92.85 ± 0.85	93.25 ± 0.49
MLLRSKPALPPPLMLLLLGPLGPLSPGALPRPAQAQDVVDLDFFTQEPLHLVSPSFLSVTIDANLATDPRFLILLGSPKLRTLARGLSPAYLRFGGTKTDFLIFDPKKESTFEERSYWQSQVNQDICKYGSIPPDVEEKLRLEWPYQEQLLLREHYQKKFKNSTYSRSSVDVLYTFANCSGLDLIFGLNALLRTADLQWNSSNAQLLLDYCSSKGYNISWELGNEPNSFLKKADIFINGSQLGEDFIQLHKLLRKSTFKNAKLYGPDVGQPRRKTAKMLKSFLKAGGEVIDSVTWHHYYLNGRTATKEDFLNPDVLDIFISSVQKVFQVVESTRPGKKVWLGETSSAYGGGAPLLSDTFAAGFMWLDKLGLSARMGIEVVMRQVFFGAGNYHLVDENFDPLPDYWLSLLFKKLVGTKVLMASVQGSKRRKLRVYLHCTNTDNPRYKEGDLTLYAINLHNVTKYLRLPYPFSNKQVDKYLLRPLGPHGLLSKSVQLNGLTLKMVDDQTLPPLMEKPLRPGSSLGLPAFSYSFFVIRNAKVAACI [HPSE]	97.15 ± 0.33	79.82 ± 0.76	96 ± 1.1	95.86 ± 0.27	90.1 ± 0.52	90.5 ± 1.7
MLQRGLWPWRTRLLPTPGTWRPARPWPLPPPPQVLRVKLCGNVKYYQSHHYSTVVPPDEITVIYRHGLPLVTLTLPSRKERCQFVVKPMLSTVGSFLQDLQNEDKGIKTAAIFTADGNMISASTLMDILLMNDFKLVINKIAYDVQCPKREKPSNEHTAEMEHMKSLVHRLFTILHLEESQKKREHHLLEKIDHLKEQLQPLEQVKAGIEAHSEAKTSGLLWAGLALLSIQGGALAWLTWWVYSWDIMEPVTYFITFANSMVFFAYFIVTRQDYTYSAVKSRQFLQFFHKKSKQQHFDVQQYNKLKEDLAKAKESLKQARHSLCLQMQVEELNEKN [CCDC109B]	92.6 ± 2.3	57.4 ± 2	97.29 ± 0.17	95.61 ± 0.13	95.11 ± 0.48	93.64 ± 0.74
MLRAGAPTGDLPRAGEVHTGTTIMAVEFDGGVVMGSDSRVSAGEAVVNRVFDKLSPLHERIYCALSGSAADAQAVADMAAYQLELHGIELEEPPLVLAAANVVRNISYKYREDLSAHLMVAGWDQREGGQVYGTLGGMLTRQPFAIGGSGSTFIYGYVDAAYKPGMSPEECRRFTTDAIALAMSRDGSSGGVIYLVTITAAGVDHRVILGNELPKFYDE [PSMB9]	80 ± 1.9	24.2 ± 0.77	90.2 ± 1.4	91.27 ± 0.32	87.59 ± 0.53	83.1 ± 1.6
MLRGISQLPAVATMSWVLLPVLWLIVQTQAIAIKQTPELTLHEIVCPKKLHILHKREIKNNQTEKHGKEERYEPEVQYQMILNGEEIILSLQKTKHLLGPDYTETLYSPRGEEITTKPENMEHCYYKGNILNEKNSVASISTCDGLRGYFTHHHQRYQIKPLKSTDEKEHAVFTSNQEEQDPANHTCGVKSTDGKQGPIRISRSLKSPEKEDFLRAQKYIDLYLVLDNAFYKNYNENLTLIRSFVFDVMNLLNVIYNTIDVQVALVGMEIWSDGDKIKVVPSASTTFDNFLRWHSSNLGKKIHDHAQLLSGISFNNRRVGLAASNSLCSPSSVAVIEAKKKNNVALVGVMSHELGHVLGMPDVPFNTKCPSGSCVMNQYLSSKFPKDFSTSCRAHFERYLLSQKPKCLLQAPIPTNIMTTPVCGNHLLEVGEDCDCGSPKECTNLCCEALTCKLKPGTDCGGDAPNHTTE [ADAMDEC1]	94 ± 2.1	66.9 ± 6.3	96.2 ± 0.17	95.52 ± 0.43	94.82 ± 0.19	94.56 ± 0.34
MLTELEKALNSIIDVYHKYSLIKGNFHAVYRDDLKKLLETECPQYIRKKGADVWFKELDINTDGAVNFQEFLILVIKMGVAAHKKSHEESHKE [S100A8]	80.1 ± 1.9	54.4 ± 3.1	91.3 ± 1.5	92.37 ± 0.69	82.1 ± 1.6	89.4 ± 1
MMAQSKANGSHYALTAIGLGMLVLGVIMAMWNLVPGFSAAEKPTAQGSNKTEVGGGILKSKTFSVAYVLVGAGVMLLLLSICLSIRDKRKQRQGEDLAHVQHPTGAGPHAQEEDSQEEEEEDEEAASRYYVPSYEEVMNTNYSEARGEEQNPRLSISLPSYESLTGLDETTPTSTRADVEASPGNPPDRQNSKLAKRLKPLKVRRIKSEKLHLKDFRINLPDKNVPPPSIEPLTPPPQYDEVQEKAPDTRPPD [TMEM51]	94.9 ± 1.4	61.1 ± 4.6	95.13 ± 0.15	94.94 ± 0.49	93.31 ± 0.41	92.77 ± 0.37
MMFRDQVGVLAGWFKGWNECEQTVALLSLLKRVSQTQARFLQLCLEHSLADCAELHVLEREANSPGIINQWQQESKDKVISLLLTHLPLLKPGNLDAKVEYMKLLPKILAHSIEHNQHIEESRQLLSYALIHPATSLEDRSALAMWLNHLEDRTSTSFGGQNRGRSDSVDYGQTHYYHQRQNSDDKLNGWQNSRDSGICINASNWQDKSMGCENGHVPLYSSSSVPTTINTIGTSTSTILSGQAHHSPLKRSVSLTPPMNVPNQPLGHGWMSHEDLRARGPQCLPSDHAPLSPQSSVASSGSGGSEHLEDQTTARNTFQEEGSGMKDVPAWLKSLRLHKYAALFSQMTYEEMMALTECQLEAQNVTKGARHKIVISIQKLKERQNLLKSLERDIIEGGSLRIPLQELHQMILTPIKAYSSPSTTPEARRREPQAPRQPSLMGPESQSPDCKDGAAATGATATPSAGASGGLQPHQLSSCDGELAVAPLPEGDLPGQFTRVMGKVCTQLLVSRPDEENISSYLQLIDKCLIHEAFTETQKKRLLSWKQQVQKLFRSFPRKTLLDISGYRQQRNRGFGQSNSLPTAGSVGGGMGRRNPRQYQIPSRNVPSARLGLLGTSGFVSSNQRNTTATPTIMKQGRQNLWFANPGGSNSMPSRTHSSVQRTRSLPVHTSPQNMLMFQQPEFQLPVTEPDINNRLESLCLSMTEHALGDGVDRTSTI [SAMD4A]	80.4 ± 0.93	12.5 ± 0.52	92.98 ± 0.71	93.39 ± 0.29	83.1 ± 1.3	84.55 ± 0.77
MNMTQARVLVAAVVGLVAVLLYASIHKIEEGHLAVYYRGGALLTSPSGPGYHIMLPFITTFRSVQTTLQTDEVKNVPCGTSGGVMIYIDRIEVVNMLAPYAVFDIVRNYTADYDKTLIFNKIHHELNQFCSAHTLQEVYIELFDQIDENLKQALQKDLNLMAPGLTIQAVRVTKPKIPEAIRRNFELMEAEKTKLLIAAQKQKVVEKEAETERKKAVIEAEKIAQVAKIRFQQKVMEKETEKRISEIEDAAFLAREKAKADAEYYAAHKYATSNKHKLTPEYLELKKYQAIASNSKIYFGSNIPNMFVDSSCALKYSDIRTGRESSLPSKEALEPSGENVIQNKESTG [ERLIN1]	94.6 ± 1.8	79.2 ± 1.4	95.84 ± 0.41	94.53 ± 0.57	91.74 ± 0.47	91.63 ± 0.7
MNTIVFNKLSGAVLFEDGGASERERGGRPYSGVLDSPHARPEVGIPDGPPLKDNLGLRHRRTGARQNGGKVRHKRQALQDMARPLKQWLYKHRDNPYPTKTEKILLALGSQMTLVQVSNWFANARRRLKNTVRQPDLSWALRIKLYNKYVQGNAERLSVSSDDSCSEDGENPPRTHMNEGGYNTPVHHPVIKSENSVIKAGVRPESRASEDYVAPPKYKSSLLNRYLNDSLRHVMATNTTMMGKTRQRNHSGSFSSNEFEEELVSPSSSETEGNFVYRTDTLENGSNKGESAANRKGPSKDDTYWKEINAAMALTNLAQGKDKLQGTTSCIIQKSSHIAEVKTVKVPLVQQF [MKX]	95 ± 2.1	82.42 ± 0.67	95.17 ± 0.2	92.86 ± 0.56	79 ± 1.7	86.15 ± 0.099
